Reference: patent publication US20110237503A1 (Eli Lilly, published 2011)
Where no end group is shown, it is not given here. Side-chain parts run from the residue outwards. [ ]: non-standard residue; d: D form. maleimide = maleimide end of mPEG-20 kDa maleimide, which attaches the 20 kDa PEG to the Cys thiol; 1Nal = N[C@@H](Cc1cccc2ccccc12)C(=O)O; Aib = CC(C)(N)C(=O)O

T1: human glucose-dependent insulinotropic polypeptide receptor (hGIP-R) (human, UniProt P48546 22-466)
T1 sequence (looked up): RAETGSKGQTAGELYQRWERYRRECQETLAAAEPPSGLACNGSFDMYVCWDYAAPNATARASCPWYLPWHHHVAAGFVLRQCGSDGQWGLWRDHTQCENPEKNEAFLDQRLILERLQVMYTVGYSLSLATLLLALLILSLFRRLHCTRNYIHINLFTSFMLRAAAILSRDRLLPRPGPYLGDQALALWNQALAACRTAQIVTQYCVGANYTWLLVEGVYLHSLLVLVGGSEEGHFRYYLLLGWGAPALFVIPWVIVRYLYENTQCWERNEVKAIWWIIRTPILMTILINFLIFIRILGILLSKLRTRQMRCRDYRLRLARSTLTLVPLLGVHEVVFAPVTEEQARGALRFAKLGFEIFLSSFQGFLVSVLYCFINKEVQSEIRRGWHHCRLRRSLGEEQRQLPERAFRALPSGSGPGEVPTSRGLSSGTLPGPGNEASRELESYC

B1: Aib2, Aib13, Nal22, Aib29, Cys43(PEG20K), Cys44(PEG20K)-GIP (Example 5, PEGylated with mPEG-Iodoacetamide) (peptide)
peptide: Y[Aib]EGTFTSDYSI[Aib]LDKIAQRA[1Nal]VQWLIA[Aib]KGKKQEWKHQITQC([acetamide-mPEG 20 kDa])C([acetamide-mPEG 20 kDa])-NH2
B2: Aib2, Aib13, Aib29, Cys43(PEG20K), Cys44(PEG20K)-GIP (Example 3, PEGylated with mPEG-MAL) (peptide)
peptide: Y[Aib]EGTFTSDYSI[Aib]LDKIAQRAFVQWLIA[Aib]KGKKQEWKHQITQC([maleimide-mPEG 20 kDa])C([maleimide-mPEG 20 kDa])-NH2
B3: Example 1 (Aib2, Aib13, Nal22, Aib29 GIP analog, 42 residues) (peptide)
peptide: Y[Aib]EGTFTSDYSI[Aib]LDKIAQRA[1Nal]VQWLIA[Aib]KGKKQEWKHQITQ
modifications: not fully specified (C-terminus)
notes: Not PEGylated
B4: Example 2 (Aib2, Aib13, Aib29 GIP analog, 42 residues) (peptide)
peptide: Y[Aib]EGTFTSDYSI[Aib]LDKIAQRAFVQWLIA[Aib]KGKKQEWKHQITQ
modifications: not fully specified (C-terminus)
notes: Not PEGylated
B5: Aib2, Aib13, Nal22, Aib29, Cys43(PEG20K), Cys44(PEG20K)-GIP (Example 4, PEGylated with mPEG-MAL) (peptide)
peptide: Y[Aib]EGTFTSDYSI[Aib]LDKIAQRA[1Nal]VQWLIA[Aib]KGKKQEWKHQITQC([maleimide-mPEG 20 kDa])C([maleimide-mPEG 20 kDa])-NH2
notes: also called Ex 4

Tests used:
[1] = target: T1, human glucose-dependent insulinotropic …; assay: cell-based or functional assay
[2] = target: T2, human glucagon-like peptide 1 receptor (hGLP-1-R) (human, UniProt P43220 24-463); assay: cell-based or functional assay
[3] = target: T1, human glucose-dependent insulinotropic …; assay: SPA competition binding assay
[4] = target: T2, human glucagon-like peptide 1 receptor …; assay: SPA competition binding assay
[5] = target: T1, human glucose-dependent insulinotropic …; assay: SPA competition, [125I]GIP displacement, hGIP-R CHO-S membranes
Method: The peptides analogs are serially diluted into binding buffer. […] Then, 90 μL membranes (4 μg/well), 50 μL [¹²⁵I] […] Plates are read with a MicroBeta® scintillation counter after 12 hours of settling time at room temperature.

[6] = target: T2, human glucagon-like peptide 1 receptor …; assay: SPA competition, I-125 GLP-1 displacement, hGLP-1-R 293HEK membranes
Method: The binding buffer contains 25 mM HEPES, pH 7.4, 2.5 mM CaCl₂, 1 mM MgCl₂, 0.1% fatty acid free BSA, 0.003% Tween20, and Roche Complete™ Inhibitors without EDTA. […] The peptide analog is dissolved in PBS and serially diluted in binding buffer. […] Plates are read with a PerkinElmer Life and Analytical Sciences Trilux MicroBeta® scintillation counter after 12 hours of settling time at room temperature.
The IC₅₀ concentration is converted to Ki using the Cheng-Prusoff equation.

[7] = target: T3, human glucagon receptor (hGlucR) (human, UniProt P47871 26-477); assay: ratio of Ki values from SPA competition binding assays (Gluc-R against GIP-R and GLP-1-R)
T3 construct: whole, on cells
T3 sequence (P47871 26-477): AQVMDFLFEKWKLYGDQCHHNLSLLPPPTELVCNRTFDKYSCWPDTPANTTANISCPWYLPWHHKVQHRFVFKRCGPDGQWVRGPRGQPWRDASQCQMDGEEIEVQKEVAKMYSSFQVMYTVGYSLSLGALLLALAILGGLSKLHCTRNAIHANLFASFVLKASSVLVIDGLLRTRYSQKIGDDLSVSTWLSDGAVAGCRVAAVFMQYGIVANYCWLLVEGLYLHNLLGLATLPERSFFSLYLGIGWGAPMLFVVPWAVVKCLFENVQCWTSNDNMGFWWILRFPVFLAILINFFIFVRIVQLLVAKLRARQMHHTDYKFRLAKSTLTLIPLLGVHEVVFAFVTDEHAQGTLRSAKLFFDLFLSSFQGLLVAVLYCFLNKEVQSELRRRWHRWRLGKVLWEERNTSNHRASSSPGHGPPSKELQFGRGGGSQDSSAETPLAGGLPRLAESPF

Binder	EC50 (relative), intracellular cAMP in hGIP-R-CHO-S cells, HTRF [1] [nM]	EC50 (relative), intracellular cAMP in hGLP-1-R-293HEK cells, HTRF [2] [nM]	Ki [3] [nM]	Ki [4] [nM]	Ki [5] [nM]	Ki [6] [nM]	selectivity ratio versus Gluc-R [7] [times]
B1	0.207	0.959	< 100	< 100	9.22	6.2	≥ 100
B2	0.244	1.11	< 100	< 100	9.79	9	≥ 100
B3	0.005	0.036	< 100	< 100	0.044	0.096	≥ 100
B4	0.023	0.045	< 100	< 100	0.023	0.059	≥ 100
B5	0.277	0.844	< 100	< 100	8.23	5.27	≥ 100
